This is an account of results in patent publication US20240424120A1.

Starred links: 1 amine or outer side, 2 acyl side, 3 side chain; linkers in the order of their positions; H or OH if unused. Positions of bridges follow the written chain, without caps; N, C: chain ends. Non-standard residues stand in square brackets, D forms with d. No end group written: not given here. TATA = O=C(CC[*:1])N1CN(C(=O)CC[*:2])CN(C(=O)CC[*:3])C1; 1Nal = N[C@@H](Cc1cccc2ccccc12)C(=O)O; Hyp = O=C(O)[C@@H]1C[C@@H](O)CN1; hArg = N=C(N)NCCCC[C@H](N)C(=O)O; Pen = CC(C)(S)[C@H](N)C(=O)O; hCys = N[C@@H](CCS)C(=O)O; βAla = NCCC(=O)O; Sar = CNCC(=O)O

The target in test [1] is Human Nectin-4 (human) (UniProt Q96NY8). Nature of the test: SPR (Biacore 8K), Nectin-4 amine-coupled on CM5 chip, compound as analyte, multi-cycle kinetics, 1:1 model. Background: Surface plasmon resonance follows binding to a sensor surface in real time, without labels.
Test [2] has the same target. Nature of the test: SPR (Biacore 8K), Nectin-4 amine-coupled on CM5 chip, compound as analyte, multi-cycle kinetics, 1:1 model; average of two tests.

One may read the Kd as a measure of binding affinity in units of concentration. High values mean weaker binding, low ones tighter binding.

Chain of Human Nectin-4 (human) (Q96NY8 32-349 limits assumed): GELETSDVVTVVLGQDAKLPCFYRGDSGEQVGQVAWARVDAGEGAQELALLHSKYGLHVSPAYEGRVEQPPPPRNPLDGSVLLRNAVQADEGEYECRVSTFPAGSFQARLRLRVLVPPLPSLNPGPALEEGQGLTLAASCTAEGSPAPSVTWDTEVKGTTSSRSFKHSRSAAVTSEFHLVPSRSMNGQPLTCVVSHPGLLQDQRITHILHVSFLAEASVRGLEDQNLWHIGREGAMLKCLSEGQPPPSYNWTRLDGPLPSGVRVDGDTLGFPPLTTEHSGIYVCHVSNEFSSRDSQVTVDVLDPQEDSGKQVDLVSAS

B1: Acetate salt of PDC_3 (peptide)
peptide: [βAla][Sar][Sar][Sar][Sar][Sar][Sar][Sar][Sar][Sar][Sar]K[Sar]DCP[1Nal][dD][Pen]M[hArg]DWSTP[Hyp]W[hCys]
modifications: not fully specified (C-terminus); cysteine pairing not given here; also: further groups not given here, drug-linker INT_1 coupled, site not given here, acetate salt
In the test with Human Nectin-4 (human) [1], B1 yielded a Kd of 4.13 nM.

B2: Acetate salt of PDC_1 (peptide)
peptide: [βAla][Sar][Sar][Sar][Sar][Sar][Sar][Sar][Sar][Sar][Sar]K[hArg]DCP[1Nal][dD][Pen]M[hArg]DWSTP[Hyp]WC-NH2
modifications: lactam 12-14; linker 15-19-29 via TATA; also: drug-linker INT_1 coupled, site not given here, acetate salt
Consider B2, for which the dissociation constant Kd with Human Nectin-4 (human) [1] is 1.4 nM.

B3: Acetate salt of PDC_2 (peptide)
peptide: [βAla][Sar][Sar][Sar][Sar][Sar][Sar][Sar][Sar][Sar][Sar]K[Sar]DCP[1Nal][dD][Pen]M[hArg]DWSTP[Hyp]WC-NH2
modifications: lactam 12-14; linker 15-19-29 via TATA; also: drug-linker INT_1 coupled, site not given here, acetate salt
In turn, B3 displayed a Kd in the test with Human Nectin-4 (human) [2] of 0.43 nM.
